The values that follow come from patent publication US20050074865A1 (COMPOUND THERAPEUTICS, published 2005).

The target of assay [1] is T1, biotinylated target peptide NH2-YPYDVPDYAGSGDYKAFD containing the high affinity HA epitope (also: biotinylated, position not given here).
T1 construct: also called the peptide
T1 peptide: YPYDVPDYAGSGDYKAFD
Nature of the assay: sandwich ELISA: component captured on anti-myc (mAb 9E10) plates, biotinylated peptide detected with streptavidin-HRP. On the technique in general: An ELISA detects its analyte on a solid surface through an enzyme-linked reagent.

For assay [2], the target named is T2, S-TNF, human TNFα fusion protein with an N-terminal S-Tag (human, UniProt P01375 77-233).
T2 construct: Made by the applicants; not shown: 15 amino acid S-Tag peptide (Novagen)
T2 sequence (P01375 77-233): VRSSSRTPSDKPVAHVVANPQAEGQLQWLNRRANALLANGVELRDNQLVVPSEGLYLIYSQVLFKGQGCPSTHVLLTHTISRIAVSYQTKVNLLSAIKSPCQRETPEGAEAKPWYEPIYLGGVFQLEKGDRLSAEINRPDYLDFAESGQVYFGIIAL
The experiment in a line: indirect ELISA: sp55 from conditioned medium captured on Ni-NTA wells, S-TNF at 1 µg/mL, detection with S-protein-HRP, absorbance at 370 nm.

Where no end group is shown, it is not given here.

B1: scFvαHA, single chain antibody derived from monoclonal antibody mAb26/9 (address domain alone, expressed from pSecTag2A with C-terminal myc and His6 tags) (scFv, not shown: small tags and cut ends)
scFv: MEVQLLESGGDLVKPGGSLKLSCAASGFTFSTYGMSWVRQTPDKRLEWVATISNGGGYTYYPDSVKGRFTISRDNAKNTLYLQMSSLKSEDTAMYYCARRERYDENGFAYWGRGTLVTVSAGGGGSGGGGSGGGGSDIVMSQSPSSLAVSVGEKITMSCKSSQSLFNSGKQKNYLTWYQQKPGQSPKLLIYWASTRESGVPDRFTGSGSGTDFTLTISSVKAEDLAVYYCQNDYSHPLTFGGGTKLEIKRADAAPT
notes: also called scHA; scFv anti-HA
As to B1, in assay [1], the binding result was “binds”.

B2: sp55, full-length ecto-domain of human TNFR-1 (residues 30-211) with C-terminal myc and His6 tags, expressed from pSecTag2A (receptor)
chain: DAAQPARRAVRSLVPHLGDREKRDSVCPQGKYIHPQNNSICCTKCHKGTYLYNDCPGPGQDTDCRECESGSFTASENHLRHCLSCSKCRKEMGQVEISSCTVDRDTVCGCRKNQYRHYWSENLFQCFNCSLCLNGTVHLSCQEKQNTVCTCHAGFFLRENECVSCSNCKKSLECTKLCLPQIENVKGTEDSGTTRGGPEQKLISEEDLNSAVDHHHHHH
notes: also called sp55 address domain; p55FL
B2: the “fold elevation of S-TNF binding over non-specific binding in control samples” value in assay [2] stood at 3 fold.
